Article PMC9005620, “The crystal structure of iC3b-CR3 αI reveals a modular recognition of the main opsonin iC3b by the CR3 integrin receptor” (Nature Communications, 2022)
Blank lines part the entries; values can stand above or below the molecule they belong to.

Tests used:
iC3b (human) = test: SPR; iC3b immobilised on a CM5 chip by maleimide coupling via Cys988; αI variants as analyte, 5 injections at 0.32-26.0 μM; 10 mM HEPES-NaOH pH 7.4, 100 mM NaCl, 5 mM MgCl2; 25 °C; steady-state analysis of maximum RU, apparent KD (saturation not reached)
[1] = target: CR3 αI domain (von Willebrand A inserted domain of the αM chain of CR3), residues 126-321, C128S/I316G (human) (UniProt P11215); test: SPR; Biacore X100; CR3 αI biotinylated (NHS-PEG4-biotin) and captured on a streptavidin chip, ~900 RU; initial single-concentration injections, then 5 injections of iC3b (0.1-10.0 uM) or C3c (0.7-60.0 uM); 10 mM HEPES-NaOH pH 7.4, 100 mM NaCl, 5 mM MgCl2; 25 °C; steady-state model, saturation not reached, apparent KD
human iC3b (human) [2] = target: human iC3b (human) (UniProt P01024); test: SEC + other: SAXS; iC3b mixed with CR3 αI at 1:2 molar ratio, Superdex 200 10/300 GL, 20 mM HEPES-NaOH pH 7.5, 200 mM NaCl, 5 mM MgCl2; SAXS in continuous-flow batch mode at 4 °C
human iC3b (human) [3] = target: human iC3b (human) (UniProt P01024); test: SPR; Biacore X100; iC3b immobilised on CM5 chip by maleimide chemistry through Cys988; αI variants as analyte (5 injections at 0.32-26.0 uM); 10 mM HEPES-NaOH pH 7.4, 100 mM NaCl, 5 mM MgCl2; 25 °C; steady-state analysis, apparent KD
C3c = C3c (UniProt P01024 955-1303); test: SPR; Biacore X100; CR3 αI biotinylated (NHS-PEG4-biotin) and captured on a streptavidin chip, ~900 RU; initial single-concentration injections, then 5 injections of iC3b (0.1-10.0 uM) or C3c (0.7-60.0 uM); 10 mM HEPES-NaOH pH 7.4, 100 mM NaCl, 5 mM MgCl2; 25 °C; steady-state model, saturation not reached, apparent KD; details: both partners purified

Molecule: CR3 αI domain variant 2A (R216A/K231A) (from UniProt P11215 142-337) (domain or fragment)
Kd (iC3b (human)): 27.5 µM

Molecule: CR3 αI domain variant 1A2A (R216A/K231A/R261A/R293A) (from UniProt P11215 142-337) (domain or fragment)
Kd (iC3b (human)): 64.7 µM

Molecule: human iC3b (from UniProt P01024 749-1303) (complex)
Kd [1]: 5.2 µM

Now from value to molecule:

Kd (iC3b (human)): 16.8 µM
Molecule: CR3 αI domain variant 1A (R261A/R293A) (from UniProt P11215 142-337) (domain or fragment)

stoichiometry N (human iC3b (human) [2]): 1 | Kd (human iC3b (human) [3]): 7.1 µM | Kd (C3c): ~39 µM
B1: CR3 αI domain (von Willebrand A inserted domain of the αM chain of CR3), residues 126-321, C128S/I316G (domain or fragment)
chain: RGSPQEDSDIAFLIDGSGSIIPHDFRRMKEFVSTVMEQLKKSKTLFSLMQYSEEFRIHFTFKEFQNNPNPRSLVKPITQLLGRTHTATGIRKVVRELFNITNGARKNAFKILVVITDGEKFGDPLGYEDVIPEADREGVIRYVIGVGDAFRSEKSRQELNTIASKPPRDHVFQVNNFEALKTIQNQLREKGFAIEG
modifications: NHS-PEG4-biotin on random amine groups (only in the SPR where CR3 αI was captured on the streptavidin chip)
notes: Made in bacteria, so not glycosylated at Asn224; also called WT; not shown: His6, N-terminal, cleaved
